Assay results published in article PMC9121386 (Journal of the American Chemical Society, 2022).

What was measured:
Assay in all cases: cross-linking
[1] = target: uL16 (60S ribosomal subunit protein) (human (endogenous in H1299), UniProt P27635 1-214)
[2] = target: eS25 (40S ribosomal subunit protein) (human (endogenous in H1299), UniProt P62851 1-125)
[3] = target: uL2 (60S ribosomal subunit protein) (human (endogenous in H1299), UniProt P62917 1-257)
[4] = target: uL4 (60S ribosomal subunit protein) (human (endogenous in H1299), UniProt P36578 1-427)

Measured: binding result

B1: fragile histidine triad (Fhit), wild type (enzyme)
chain: not shown
binds: all assays above
